What was measured:
Test in all cases: EMSA; with POLγB; 10 mM Mg2+, 3 mM dCTP, 0.3 mM ddGTP; EMSA: 15 µl, 10 fmol DNA, 450 fmol POLγA, 1.8 pmol POLγB where indicated; 20 mM Tris-HCl pH 7.5, 1 mM DTT, 0.1 mg/ml BSA, 10 mM MgCl2, 10% glycerol, 3 mM dCTP
POLγA H277L;POLγB = POLγA H277L;POLγB (human?;human?, UniProt P54098;Q9UHN1 26-1239;25-485, H277L|)
POLγA G303R;POLγB = POLγA G303R;POLγB (human?;human?, UniProt P54098;Q9UHN1 26-1239;25-485, G303R|)
POLγA L304R;POLγB = POLγA L304R;POLγB (human?;human?, UniProt P54098;Q9UHN1 26-1239;25-485, L304R|)
POLγA L304R;POLγB, sequence (P54098 26-1239 L304R, chain 1 of 2): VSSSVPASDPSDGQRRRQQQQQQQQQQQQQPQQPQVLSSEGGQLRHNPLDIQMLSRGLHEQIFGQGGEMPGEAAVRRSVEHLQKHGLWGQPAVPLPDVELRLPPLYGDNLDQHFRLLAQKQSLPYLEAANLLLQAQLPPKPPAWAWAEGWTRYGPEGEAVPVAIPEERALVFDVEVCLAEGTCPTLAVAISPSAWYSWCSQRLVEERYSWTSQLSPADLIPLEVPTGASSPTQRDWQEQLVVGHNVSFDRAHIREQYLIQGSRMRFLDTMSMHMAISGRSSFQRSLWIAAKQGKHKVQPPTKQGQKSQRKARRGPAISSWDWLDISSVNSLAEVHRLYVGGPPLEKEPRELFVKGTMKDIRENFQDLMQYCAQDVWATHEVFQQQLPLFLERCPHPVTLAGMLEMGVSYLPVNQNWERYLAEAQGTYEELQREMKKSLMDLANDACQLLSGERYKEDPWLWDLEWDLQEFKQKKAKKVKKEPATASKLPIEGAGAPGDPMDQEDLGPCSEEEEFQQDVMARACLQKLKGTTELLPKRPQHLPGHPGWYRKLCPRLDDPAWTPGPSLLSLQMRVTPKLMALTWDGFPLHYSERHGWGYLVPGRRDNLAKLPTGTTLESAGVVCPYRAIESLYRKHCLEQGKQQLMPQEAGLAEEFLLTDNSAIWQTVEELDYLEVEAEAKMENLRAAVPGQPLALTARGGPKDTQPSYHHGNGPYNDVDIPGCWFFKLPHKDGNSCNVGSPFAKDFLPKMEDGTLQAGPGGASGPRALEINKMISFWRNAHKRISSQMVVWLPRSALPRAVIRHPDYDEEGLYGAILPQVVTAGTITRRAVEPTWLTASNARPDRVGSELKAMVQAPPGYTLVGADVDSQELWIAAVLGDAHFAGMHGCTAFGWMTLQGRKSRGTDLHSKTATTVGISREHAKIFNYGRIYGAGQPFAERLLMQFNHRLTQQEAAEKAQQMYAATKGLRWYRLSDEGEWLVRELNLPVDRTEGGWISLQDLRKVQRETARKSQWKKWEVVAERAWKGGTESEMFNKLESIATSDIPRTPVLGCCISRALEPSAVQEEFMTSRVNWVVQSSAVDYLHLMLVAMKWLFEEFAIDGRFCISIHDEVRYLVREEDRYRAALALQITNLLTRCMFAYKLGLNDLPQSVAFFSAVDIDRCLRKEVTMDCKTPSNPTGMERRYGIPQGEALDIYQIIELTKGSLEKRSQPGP
POLγA L304R;POLγB, sequence (Q9UHN1 25-485, chain 2 of 2): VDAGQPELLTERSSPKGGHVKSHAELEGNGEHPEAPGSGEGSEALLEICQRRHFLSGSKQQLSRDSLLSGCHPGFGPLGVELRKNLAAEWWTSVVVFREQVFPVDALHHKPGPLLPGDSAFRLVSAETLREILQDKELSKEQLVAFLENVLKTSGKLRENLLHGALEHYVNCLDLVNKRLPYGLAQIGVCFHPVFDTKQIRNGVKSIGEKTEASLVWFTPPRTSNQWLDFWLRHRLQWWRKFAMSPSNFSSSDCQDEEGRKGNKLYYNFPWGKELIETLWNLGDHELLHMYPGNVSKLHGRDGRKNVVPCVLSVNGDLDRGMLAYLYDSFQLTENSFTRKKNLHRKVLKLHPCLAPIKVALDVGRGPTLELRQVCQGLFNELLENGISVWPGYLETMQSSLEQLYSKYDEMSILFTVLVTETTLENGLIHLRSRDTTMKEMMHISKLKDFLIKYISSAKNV

POLγA S305R;POLγB = POLγA S305R;POLγB (human?;human?, UniProt P54098;Q9UHN1 26-1239;25-485, S305R|)
POLγA S305R;POLγB, sequence (P54098 26-1239 S305R, chain 1 of 2): as the sequence (P54098 26-1239 L304R, chain 1 of 2) above, with R279L, S280R counted along it
POLγA S305R;POLγB, sequence (Q9UHN1 25-485, chain 2 of 2): as the sequence (Q9UHN1 25-485, chain 2 of 2) above

POLγA R232H;POLγB = POLγA R232H;POLγB (human?;human?, UniProt P54098;Q9UHN1 26-1239;25-485, R232H|)
POLγA R232H;POLγB, sequence (P54098 26-1239 R232H, chain 1 of 2): as the sequence (P54098 26-1239 L304R, chain 1 of 2) above, with R207H, R279L counted along it
POLγA R232H;POLγB, sequence (Q9UHN1 25-485, chain 2 of 2): as the sequence (Q9UHN1 25-485, chain 2 of 2) above

POLγA G268A;POLγB = POLγA G268A;POLγB (human?;human?, UniProt P54098;Q9UHN1 26-1239;25-485, G268A|)
POLγA G268A;POLγB, sequence (P54098 26-1239 G268A, chain 1 of 2): as the sequence (P54098 26-1239 L304R, chain 1 of 2) above, with G243A, R279L counted along it
POLγA G268A;POLγB, sequence (Q9UHN1 25-485, chain 2 of 2): as the sequence (Q9UHN1 25-485, chain 2 of 2) above

POLγA R275Q;POLγB = POLγA R275Q;POLγB (human?;human?, UniProt P54098;Q9UHN1 26-1239;25-485, R275Q|)
POLγA R275Q;POLγB, sequence (P54098 26-1239 R275Q, chain 1 of 2): as the sequence (P54098 26-1239 L304R, chain 1 of 2) above, with R250Q, R279L counted along it
POLγA R275Q;POLγB, sequence (Q9UHN1 25-485, chain 2 of 2): as the sequence (Q9UHN1 25-485, chain 2 of 2) above

Measured: binding result

POLγA G303R;POLγB, sequence (P54098 26-1239 G303R, chain 1 of 2): as the sequence (P54098 26-1239 L304R, chain 1 of 2) above, with G278R, R279L counted along it
POLγA G303R;POLγB, sequence (Q9UHN1 25-485, chain 2 of 2): as the sequence (Q9UHN1 25-485, chain 2 of 2) above
POLγA H277L;POLγB, sequence (P54098 26-1239 H277L, chain 1 of 2): as the sequence (P54098 26-1239 L304R, chain 1 of 2) above, with H252L, R279L counted along it
POLγA H277L;POLγB, sequence (Q9UHN1 25-485, chain 2 of 2): as the sequence (Q9UHN1 25-485, chain 2 of 2) above

B1: primed DNA template (20/35-mer) (dsDNA)
DNA 1: CGGTCGAGTCTAGAGGAGCC
DNA 2: GACTACGTCTATCCGGGCTCCTCTAGACTCGACCG
binds: POLγA H277L;POLγB | POLγA G303R;POLγB | POLγA L304R;POLγB | POLγA S305R;POLγB | POLγA R232H;POLγB | POLγA G268A;POLγB | POLγA R275Q;POLγB

Reference: paper PMC4557304
